Key:
Type in all cases: biochemical
[1] = biological target: T1, SIRT2 (Homo sapiens, UniProt Q8IXJ6); assay: In vitro deacetylation assay, acetylated tubulin as substrate of purified SIRT2; details: nicotinamide 5 mM, increasing amounts of DBC1 (FIG. 3d)
T1 construct: made in house; host or cells: transfected mammalian cells (293 cells are named for the Flag-SIRT constructs)
T1 sequence (Q8IXJ6 1-389): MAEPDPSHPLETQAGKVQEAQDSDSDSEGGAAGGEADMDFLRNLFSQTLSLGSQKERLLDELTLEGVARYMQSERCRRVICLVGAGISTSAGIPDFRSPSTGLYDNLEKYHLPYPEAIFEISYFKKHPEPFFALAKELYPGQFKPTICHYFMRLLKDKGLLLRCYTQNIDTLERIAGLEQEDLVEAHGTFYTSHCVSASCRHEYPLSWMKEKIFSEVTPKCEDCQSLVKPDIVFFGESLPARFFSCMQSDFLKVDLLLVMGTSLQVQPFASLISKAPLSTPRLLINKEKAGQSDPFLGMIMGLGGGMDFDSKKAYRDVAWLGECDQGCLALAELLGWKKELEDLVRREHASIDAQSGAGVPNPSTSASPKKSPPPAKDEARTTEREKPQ

[2] = biological target: T2, SIRT1 (Homo sapiens, UniProt Q96EB6); assay: In vitro deacetylation assay, acetylated p53 as substrate of purified Flag-SIRT1; details: purified system, 50 μM NAD, dose dependent, Western blot (FIG. 3c)
T2 construct: made in house
T2 sequence (Q96EB6 1-747): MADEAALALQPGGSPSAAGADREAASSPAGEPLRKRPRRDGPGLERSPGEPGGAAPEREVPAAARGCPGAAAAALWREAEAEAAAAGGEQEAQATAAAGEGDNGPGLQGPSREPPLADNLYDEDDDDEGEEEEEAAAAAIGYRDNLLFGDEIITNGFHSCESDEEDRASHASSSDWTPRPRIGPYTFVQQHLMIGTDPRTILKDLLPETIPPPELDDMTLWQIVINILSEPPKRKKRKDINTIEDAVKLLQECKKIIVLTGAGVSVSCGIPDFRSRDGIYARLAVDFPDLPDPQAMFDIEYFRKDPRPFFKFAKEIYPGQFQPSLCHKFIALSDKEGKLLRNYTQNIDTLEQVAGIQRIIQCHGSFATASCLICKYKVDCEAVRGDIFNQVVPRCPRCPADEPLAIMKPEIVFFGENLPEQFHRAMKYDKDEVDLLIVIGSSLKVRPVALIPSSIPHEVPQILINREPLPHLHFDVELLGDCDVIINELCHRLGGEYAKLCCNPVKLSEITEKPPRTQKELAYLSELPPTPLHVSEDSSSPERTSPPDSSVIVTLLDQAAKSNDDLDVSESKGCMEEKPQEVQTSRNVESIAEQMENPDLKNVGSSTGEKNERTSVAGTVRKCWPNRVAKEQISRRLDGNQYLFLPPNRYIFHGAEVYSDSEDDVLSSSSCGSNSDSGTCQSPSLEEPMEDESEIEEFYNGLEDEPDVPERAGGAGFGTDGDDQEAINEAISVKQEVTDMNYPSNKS
Description: FIG. 3. DBC1 inhibits SIRT1 mediated deacetylation of p53 (a) Fractionation of immunoprecipitated F-SIRT1 complex. 293 cells were transfected with Flag-tagged SIRT1 and Flag-SIRT1 complexes were subsequently purified by M2-immunoprecipitation in FLAG-lysis buffer. Flag-SIRT1 complex was eluted in 100 ul of elution buffer and half of the elution was fractioned by size-exclusion chromatography on a Sepherose12 Column on the SMART system. 10% of each fraction was analyzed by Western Blot for DBC1 (upper panel) and SIRT1 (lower panel). (b) DBC1 inhibits SIRT1 mediated deacetylation of p53 in vitro. […] The reactions were resolved on SDS-PAGE and analyzed by Western Blot using antibodies specific for acetylated p53, total p53 (DO-1), SIRT1 and DBC1. […] The reactions were resolved on SDS-Page and analyzed by Western Blot using antibodies specific for acetylated p53, total p53, SIRT1 and DBC1. […]
Although the deacetylase activity of SIRT1 is essential for its function, it is unknown how this activity is regulated. When purified Flag-SIRT1 complexes from human cells were analyzed by gel-filtration chromatography on a Superose 12 column (SMART system), SIRT1 and DBC1 polypeptides co-eluted in fraction 15 with an apparent molecular weight of 440 KDa (lane 4, FIG. 3a). […]

[3] = biological target: HDAC1 (Homo sapiens, UniProt Q13547); assay: In vitro deacetylation of p53 by purified HDAC1 complex; details: purified HDAC1 complexes, increasing amounts of DBC1 (FIG. 9)
Sequence of HDAC1 (Q13547 whole entry, species assumed): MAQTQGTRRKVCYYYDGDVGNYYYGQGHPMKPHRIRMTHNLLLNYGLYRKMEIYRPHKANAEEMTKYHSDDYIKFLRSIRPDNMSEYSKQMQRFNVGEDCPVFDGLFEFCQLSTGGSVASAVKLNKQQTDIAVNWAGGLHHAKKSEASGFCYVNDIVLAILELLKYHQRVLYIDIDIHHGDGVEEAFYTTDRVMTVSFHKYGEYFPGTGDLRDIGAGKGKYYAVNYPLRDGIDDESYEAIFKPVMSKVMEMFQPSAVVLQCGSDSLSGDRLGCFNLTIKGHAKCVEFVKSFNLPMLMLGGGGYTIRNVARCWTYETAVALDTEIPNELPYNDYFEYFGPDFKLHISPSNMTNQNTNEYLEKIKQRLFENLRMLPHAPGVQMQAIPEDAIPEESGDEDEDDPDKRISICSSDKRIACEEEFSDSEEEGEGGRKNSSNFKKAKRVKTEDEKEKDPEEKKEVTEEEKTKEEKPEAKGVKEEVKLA
Description: FIG. 9. Effect of DBC1 on HDAC1 mediated p53 deacetylation in vitro. Purified HDAC1 complex was used to deacetylate p53 in vitro (lane 2). Increasing amounts of DBC1 were added in addition to HADC1 (lanes 3-4) to investigate whether DBC1 can inhibit p53 deacetylation by HDAC1. […] The samples were resolved by SDS-PAGE and analyzed by Western Blot using antibodies for acetylated p53, total p53 (DO-1), HDAC1 and DBC1.
Finally, p53 could also be deacetylated by purified HDAC1 complexes as previously shown (Luo, 2000) (lane 2, FIG. 9); this deacetylase activity was not repressed by DBC1 (lanes 3-4).

Row | SIRT2-mediated deacetylation of acetylated tubulin [1] | SIRT1-mediated deacetylation of acetylated p53 [2] | HDAC1-mediated deacetylation of p53 [3] | Compound
1 | inhibited | – | – | NC(=O)c1cccnc1 [nicotinamide, reference compound]
2 | not affected | strongly repressed | not repressed | Flag-DBC1: Flag-tagged Deleted in Breast Cancer 1 protein purified by M2 immunoprecipitation under high stringency
